In article PMC9304036 (Proceedings of the National Academy of Sciences of the …, 2022):

How the values were obtained:
[1] = biological target: SARS-CoV-2 spike receptor-binding domain (RBD), residues 333 to 529, wild type, for crystallization (SARS-CoV-2 Wuhan-Hu-1 (QHD43416.1), UniProt P0DTC2); test: crystal structure; settings: both partners purified
[2] = biological target: SARS-CoV-2 RBD, ancestral (wild type), for biolayer interferometry (SARS-CoV-2 Wuhan-Hu-1 (ancestral), UniProt P0DTC2); test: BLI; Octet Red; […] (15 µg/mL) […] (AHC) biosensors; […]; 1x PBS pH 7.4, 0.01% BSA, 0.002% Tween 20; association 90 s, dissociation 90 s; 1:1 binding model; settings: both partners purified

| Binder | binding result [1] | binding result [2] |
| --- | --- | --- |
| ADG20 Fab (Fab, V domains shown, also called ADG-2 (same Fab domain)) VH: EVQLVESGGGLVKPGGSLRLSCAASGFTFSSYYMNWVRQAPGKGLEWVSSISEDGYSTYYPDSLKGRFTISRDSAKNSLYLQMNSLRADDTAVYYCARDFSGHTAWAGTGFEYWGQGTLVTVSS VL: QPVLTQPPSVSGAPGQRITISCTGSSSNIGAGYDVHWYQQLPGTAPKLLIYGSSSRNSGVPDRFSGSKSGTSASLAITGLQAEDEADYYCQSYDSSLSVLYTFGTGTKVTVL | binds | – |
| ADI-55688 Fab (Fab, V domains shown, also called parental antibody of ADG20) VH: EVQLVESGGGLVKPGGSLRLSCAASGFTFSSYYMNWVRQAPGKGLEWVSSISSDGYNTYYPDSLKGRFTISRDSAKNSLYLQMNSLRADDTAVYYCARDFSGHTAVAGTGFEYWGQGTLVTVSS VL: QPVLTQPPSVSGAPGQRITISCTGSSSNIGAGYDVHWYQQLPGTAPKLLIYGSSSRPSGVPDRFSGSKSGTSASLAITGLQAEDEADYYCQSYDSSLSVLYVFGTGTKVTVL | binds | – |
| ADG20 IgG (antibody, V domains shown, copies: 2 + 2) VH: EVQLVESGGGLVKPGGSLRLSCAASGFTFSSYYMNWVRQAPGKGLEWVSSISEDGYSTYYPDSLKGRFTISRDSAKNSLYLQMNSLRADDTAVYYCARDFSGHTAWAGTGFEYWGQGTLVTVSS VL: QPVLTQPPSVSGAPGQRITISCTGSSSNIGAGYDVHWYQQLPGTAPKLLIYGSSSRNSGVPDRFSGSKSGTSASLAITGLQAEDEADYYCQSYDSSLSVLYTFGTGTKVTVL | – | binds |
